The values that follow come from US20210347868A1 (published 2021).

The target in assay [1] is T1, biotinylated alpha-synuclein peptide, residues 111-140 (human, biotinylated (position not given)).
T1 construct: also called syn111-140
The experiment in a line: Octet biolayer interferometry, biotinylated peptide on streptavidin biosensor. (In BLI a coated tip is dipped into the sample, and binding shifts an interference pattern.)

In assay [2] the target is T2, biotinylated alpha-synuclein peptide, residues 121-140 (human, biotinylated (position not given)).
T2 construct: also called syn121-140
The experiment in a line: Octet biolayer interferometry; table of peptide regions bound by anti-synuclein mAbs.

Assay [3] deals with full-length (140 amino acid) human alpha-synuclein with C-terminal AviTag, biotinylated, his-tag removed by … (human, UniProt P37840 1-140). The experiment in a line: isothermal titration calorimetry in PBS, antibody:synuclein (1:2) model; Kd only on the graph. The procedure:
FIGS. 5A-5C show affinity binding of human anti-synuclein antibodies for full-length synuclein protein as determined by isothermal titration calorimetry (ITC). […] The thermodynamic parameters and the equilibrium dissociation constants, Kd, were determined upon fitting the ITC data to a model assuming a single set of binding sites corresponding to an antibody:synuclein (1:2) binding model. Continuous lines represent the best fit of experimental data assuming a single set of binding sites. Experiments were performed in PBS. Equilibrium dissociation constants (Kd) are shown on the individual graphs.
The affinities of antibodies for full length synuclein protein were determined in solution on a MicroCal Auto-iTC200 system (Malvern Panalystical; Malvern, United Kingdom). […] The thermodynamic parameters and the equilibrium dissociation constants, Kd, were determined upon fitting the ITC data to a model assuming a single set of binding sites corresponding to an antibody:synuclein (1:2) binding model (FIG. 5).
A general note: ITC needs no label: the signal is the heat of the interaction.

B1: human anti-alpha-synuclein antibody 323.1 (hantiAsyn-323.1) (antibody, V domains shown)
VH: EVQLLESGGGLVQPGGSLKLSCAASGFTFSASAMHWVRQTSDKRLEWVGRIRNKANNYATAYAASVKGRFTISRDDSKNTAYLQMNSLKTEDTAVYYCTRHLSLGGNSVDYWGQGTPVTVSS
VL: DVVMTQSPLSSPVTLGQPASISCRASQSPVHSDGNTYLSWLQQRPGQPPRLLIYTISNRFPGVPDRFSGSGAGTDFTLRISRVEAEDVGVYYCMQGTQFPYTFGQGTKLEIK
In the case of B1, the binding result in assay [1], in assay [2] and in assay [3] was “binds” each time.

B2: human anti-alpha-synuclein antibody 336.1 (hantiAsyn-336.1) (antibody, V domains shown)
VH: EVQLVQSGGTLVQPGGSLRLSCAASGFTFSTYAISWVRQAPGRGLEWVSFITGDGSRILYADSVRGRFSISRDNSKNTLYLQMNSLRTDDTAMYYCVFNHYWGQGTLVTVSS
VL: AIQLTQSPDSLAVSLGERATINCKASQSLLYSSNNRNYLAWYQQKPGQPPKALIYWASTRESGVPDRFSGSGSGTDFTLTISSLQAEDVAVYYCHQYYTTHSFGQGTKLEIK
In the case of B2, the binding result in assay [1] and in assay [3] was “binds” throughout.
